Data reported in PMC11408249, “Non-invasive in vivo imaging of changes in Collagen III turnover in myocardial fibrosis” (npj Imaging, 2024).
Residues, ends and D or L forms follow the SMILES beside them. No end group written: not given here. *: point of attachment. DOTA = O=C(O)CN1CCN(CC(=O)O)CCN(CC(=O)*)CCN(CC(=O)O)CC1

T1: COL3 (Mus musculus, UniProt P08121)
T1 construct: from tissue; host or cells: infarcted left-ventricular myocardium of female CD1 mice, in vivo
T1 sequence (P08121 155-1219 limits assumed): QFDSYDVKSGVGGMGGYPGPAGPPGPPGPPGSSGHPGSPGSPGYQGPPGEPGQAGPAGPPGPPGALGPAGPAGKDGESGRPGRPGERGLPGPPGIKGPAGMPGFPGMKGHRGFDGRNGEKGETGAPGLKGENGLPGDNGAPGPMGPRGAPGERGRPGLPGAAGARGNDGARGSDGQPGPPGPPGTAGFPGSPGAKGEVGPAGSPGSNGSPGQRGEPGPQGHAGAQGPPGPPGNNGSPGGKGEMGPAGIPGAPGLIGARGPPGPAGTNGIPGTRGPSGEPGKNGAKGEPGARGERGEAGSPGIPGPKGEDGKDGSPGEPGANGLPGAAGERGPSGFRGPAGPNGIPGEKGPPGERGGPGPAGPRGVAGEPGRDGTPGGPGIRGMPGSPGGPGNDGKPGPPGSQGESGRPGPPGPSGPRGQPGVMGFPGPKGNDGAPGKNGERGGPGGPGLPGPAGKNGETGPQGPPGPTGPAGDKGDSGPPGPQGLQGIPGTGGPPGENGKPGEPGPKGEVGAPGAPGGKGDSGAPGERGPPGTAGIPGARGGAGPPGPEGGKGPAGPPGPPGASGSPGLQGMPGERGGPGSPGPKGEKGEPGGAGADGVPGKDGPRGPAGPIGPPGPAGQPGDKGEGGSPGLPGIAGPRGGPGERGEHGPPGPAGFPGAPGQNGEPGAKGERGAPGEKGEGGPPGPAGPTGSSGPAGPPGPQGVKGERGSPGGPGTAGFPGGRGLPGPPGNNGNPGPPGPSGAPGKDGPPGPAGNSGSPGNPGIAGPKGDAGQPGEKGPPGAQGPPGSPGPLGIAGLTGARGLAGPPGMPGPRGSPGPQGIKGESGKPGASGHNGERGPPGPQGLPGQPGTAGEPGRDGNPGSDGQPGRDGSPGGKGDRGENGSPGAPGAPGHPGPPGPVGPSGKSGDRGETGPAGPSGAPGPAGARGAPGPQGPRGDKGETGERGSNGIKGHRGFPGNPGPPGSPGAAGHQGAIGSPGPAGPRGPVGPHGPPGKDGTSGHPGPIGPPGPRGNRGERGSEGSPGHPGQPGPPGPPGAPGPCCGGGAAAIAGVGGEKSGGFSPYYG

T2: Collagen type III (COL3) (Homo sapiens, UniProt P02461)
T2 chain: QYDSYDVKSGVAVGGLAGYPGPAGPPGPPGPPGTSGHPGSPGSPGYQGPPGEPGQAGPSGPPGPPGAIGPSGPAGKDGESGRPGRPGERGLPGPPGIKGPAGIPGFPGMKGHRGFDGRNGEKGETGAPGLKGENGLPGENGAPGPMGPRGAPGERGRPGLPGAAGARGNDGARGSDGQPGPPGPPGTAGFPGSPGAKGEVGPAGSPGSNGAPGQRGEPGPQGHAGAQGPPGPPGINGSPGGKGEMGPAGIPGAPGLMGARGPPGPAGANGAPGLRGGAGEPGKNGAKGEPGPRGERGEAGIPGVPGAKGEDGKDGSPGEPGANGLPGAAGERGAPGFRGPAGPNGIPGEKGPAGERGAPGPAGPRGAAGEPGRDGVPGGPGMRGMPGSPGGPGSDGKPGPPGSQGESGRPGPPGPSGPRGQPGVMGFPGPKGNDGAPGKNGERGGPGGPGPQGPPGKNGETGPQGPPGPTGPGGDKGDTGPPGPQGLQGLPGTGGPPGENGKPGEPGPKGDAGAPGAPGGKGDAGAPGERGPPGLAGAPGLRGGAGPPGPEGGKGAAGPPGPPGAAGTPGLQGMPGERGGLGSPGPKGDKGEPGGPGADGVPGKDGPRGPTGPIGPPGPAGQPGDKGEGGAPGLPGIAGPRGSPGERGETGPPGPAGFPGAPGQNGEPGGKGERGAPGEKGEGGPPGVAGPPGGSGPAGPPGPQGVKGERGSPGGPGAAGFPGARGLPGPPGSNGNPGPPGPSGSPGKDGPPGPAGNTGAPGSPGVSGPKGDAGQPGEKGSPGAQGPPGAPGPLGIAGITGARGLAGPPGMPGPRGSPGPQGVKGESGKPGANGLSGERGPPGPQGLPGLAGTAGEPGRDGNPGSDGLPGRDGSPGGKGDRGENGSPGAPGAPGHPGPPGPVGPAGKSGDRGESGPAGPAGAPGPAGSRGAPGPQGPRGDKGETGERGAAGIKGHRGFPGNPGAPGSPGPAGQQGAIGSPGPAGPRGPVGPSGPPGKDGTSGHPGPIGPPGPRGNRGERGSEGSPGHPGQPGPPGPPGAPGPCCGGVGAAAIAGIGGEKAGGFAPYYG

B1: Eu-DOTAMA-CBP1 (peptide)
chain: DARKSEVQK
modifications: not fully specified (N-terminus); also: Eu complexed by N-terminal DOTAMA
B2: Eu-DOTAMA-CBP2 (peptide)
chain: TEFPLRMRDWLKN
modifications: not fully specified (N-terminus); also: Eu complexed by N-terminal DOTAMA

Columns and labels:
COL3 remodelling = assay: Enalapril treatment after myocardial infarction, read out by COL3 molecular CMR and cine MRI; type: in vivo, mice
[1] = design: species or system mice; settings: mouse, in vivo, iv
Procedure: Gallium-68 (^68Ga) was eluted from the generators onsite at the time of the experiments. Radiolabelling of the respective DOTAMA-CBP compound was performed as follows: DOTAMA-CBPs were dissolved in water (Baxter water for irrigation) to a final concentration 4 mg/mL. In an Eppendorf, 25 µL of the DOTAMA-CBP solution was added. Sodium acetate (30%NaOAc, 20 µL, pH 5) buffer was added to this solution followed by the addition of 200 µL ^68Ga (~100 MBq). The solution was then heated to 50 °C for 30 min. After the reaction was removed from heat, the pH was adjusted to pH 7 by adding sodium bicarbonate (1 M, 10 µL). Labelling efficiency was followed by radio thin-layer chromatography (TLC) and HPLC. Radio TLCs were performed using silica gel IBF-2 Baker plates, 10% NH4OAc 50:50 in MeOH with 5 µL of the sample added. For the HPLC, a C18 column was used (MeCN + 0.1% TFA and H2O + 0.1% TFA, gradient) with 10 µL of the sample measured.
In vivo biodistribution imaging was carried out using a positron emission tomography/computed tomography (PET/CT) scanner (NanoPET/CT scanner; Mediso, Hungary. Male apolipoprotein E knockout (ApoE^−/−) were anesthetised with 4% isoflurane mixed with 1% medical oxygen and maintained at 2% isoflurane for the PET/CT experiment. Mice were injected intravenously (i.v.) with either ^68Ga-DOTAMA-CBP1 or ^68Ga-DOTAMA-CBP2 (12MBq/mouse for both probes). To verify anatomical structures, CT images were obtained after the PET imaging with a 55 kVp voltage. PET images were acquired continuously up to 90 min post-injection with a 256 × 256 matrix size and a resolution of 1 mm/pixel. PET and CT images were reconstructed using the manufacturer software with a voxel size of 0.4 mm and analysed with a VivoQuant 2.5 software (Invicro, Boston, MA, USA). The data acquired with the CBP1 and CBP2 imaging probes were reconstructed in 15-minute bins up to 90 min. The PET/CT images were merged using the software’s automated fusion function. Additionally, the software was used for region-of-Interest (ROI) analysis and results were reported as %ID/g for each organ. Following the in vivo PET/CT imaging, the animals were euthanised and tissues extracted for ex vivo gamma counting (1282 CompuGamma gamma counting, LKB Wallac, Finland).

COL3 = biological target: T1, COL3; assay: In vivo MRI of the aortic wall in a murine model of vascular remodelling; settings: ApoE−/− mice after aortic injury and 12 weeks high-fat diet, i.v. 0.2 mmol/kg, LGE MRI at 3 T up to 2 h post-injection
From the text: Male ApoE^−/− mice were bred in-house and underwent surgery at 8–10 weeks of age (n = 6). Mice were anesthetised with 4% isoflurane mixed with 1% medical oxygen and anaesthesia was maintained at 2% during the surgery as previously reported. Briefly, mice underwent a laparotomy to expose the abdominal aorta, renal and iliac arteries. Two ligatures were inserted around the aorta (surgical silk, size 4–0, Aragó, Zaragoza, Spain), the first below the renal arteries and the second above the iliac bifurcation. A 30 G needle was introduced into the abdominal aorta at the level of the iliac bifurcation, via an aortic puncture. 1 mL of saline was infused into the aorta in three boluses. Finally, the needle was removed, and the puncture was repaired. The muscle and skin incisions were sutured (5-0 Vicryl, Ethicon Inc, Somerville, NJ), and the animals were allowed to recover. Mice were switched to a high-fat diet (HFD) containing 21% fat from lard and 0.15% (wt/wt) cholesterol (Special Diets Services, Witham, United Kingdom), on day 2 post-surgery for 12 weeks prior to the imaging experiments.
Anaesthesia was induced with 4% and maintained with 1–2% isoflurane during the MRI experiments. Mice (n = 3 per group) were placed supine on a single-loop surface coil (diameter = 47 mm) and the abdominal aorta was imaged up to 2 h post-injection of the monomeric (i.v. 0.2 mmol/kg, 0.2 mmol/kg Gd), the next day with the corresponding tetrameric collagen-binding probe (i.v 0.2 mmol/kg, 0.8 mmol/kg Gd) and the 3rd day using the scrambled probes (n = 2–3 per probe; i.v. 0.2 mmol/kg). This timeline ensures complete washout of one probe from the tissue before the administration of another probe. […]

Collagen type III (COL3) = biological target: T2, Collagen type III (COL3); assay: Eu(III) time-resolved fluorescence plate assay

| Kd (Collagen type III (COL3)) | Molecule | route of elimination (in words) [1] | time within which most of the probe is eliminated from the blood (first phase clearance) [1] | unspecific uptake in tissues (in words) [1] | other results |
| --- | --- | --- | --- | --- | --- |
|  | CCOC(=O)[C@H](CCc1ccccc1)N[C@@H](C)C(=O)N1CCC[C@H]1C(=O)O [enalapril] |  |  |  | volume of signal enhancement (LGE volume) at day 21 versus untreated mice (in words) (COL3 remodelling; enalapril 20 mg/kg/day in drinking water after MI, imaged with [Gd-DOTAMA]4-CBP1, n = 7 per group): significantly higher volume of signal enhancement; cardiac geometry and function versus untreated mice (in words) (COL3 remodelling; enalapril 20 mg/kg/day in drinking water, cine MRI, days 10 and 21 post-MI): no significant differences |
|  | CSCC[C@H](NC(=O)[C@H](CCCNC(=N)N)NC(=O)[C@H](CC(C)C)NC(=O)[C@@H]1CCCN1C(=O)[C@H](Cc1ccccc1)NC(=O)[C@H](CCC(=O)O)NC(=O)[C@@H](NC(=O)CN1CCN(CC(=O)O)CCN(CC(=O)O)CCN(CC(=O)O)CC1)[C@@H](C)O)C(=O)N[C@@H](CCCNC(=N)N)C(=O)N[C@@H](CC(=O)O)C(=O)N[C@@H](Cc1c[nH]c2ccccc12)C(=O)N[C@@H](CC(C)C)C(=O)N[C@@H](CCCCN)C(=O)N[C@@H](CC(N)=O)C(=O)O [^68Ga-DOTAMA-CBP2, metal not drawn] ({DOTA}-TEFPLRMRDWLKN-OH) | renal excretion | 15 to 30 min | no significant unspecific uptake in tissues |  |
|  | Ac-C-EWFMKDRLLNRPT [[Gd-DOTAMA]4-SccCBP2, scrambled tetrameric Gd probe (Ac-C-…), negative control] |  |  |  | signal enhancement of the remodelled aortic wall (in words) (COL3): also showed signal enhancement |
|  | CC(C)[C@H](NC(=O)[C@H](CCC(=O)O)NC(=O)[C@H](CO)NC(=O)[C@H](CCCCN)NC(=O)[C@H](CCCNC(=N)N)NC(=O)[C@H](C)NC(=O)[C@H](CC(=O)O)NC(=O)CN1CCN(CC(=O)O)CCN(CC(=O)O)CCN(CC(=O)O)CC1)C(=O)N[C@@H](CCC(N)=O)C(=O)N[C@@H](CCCCN)C(=O)O [^68Ga-DOTAMA-CBP1, metal not drawn] ({DOTA}-DARKSEVQK-OH) | renal excretion | 15 to 30 min | no significant unspecific uptake in tissues |  |
| 5.3 µM | B1 |  |  |  |  |
| 4.8 µM | B2 |  |  |  |  |
